Data as given in paper PMC3012076.

What was measured:
[1] = target: Lig A9 (9th tandem Big repeat of LigA) (L. interrogans serovar Pomona); experiment: SEC; Superose 12 10/300 GL, 25 mM HEPES pH 7.0, 50 mM KCl, with and without 3 mM CaCl2; column calibrated with molecular mass markers; self-association, monomer to dimer
[2] = target: Lig A10 (10th tandem Big repeat of LigA) (L. interrogans serovar Pomona); experiment: as above
[3] = target: LigBCen2 (L. interrogans serovar Pomona); experiment: SEC; Superose 12 10/300 GL, 50 mM Tris pH 7.0, 50 mM KCl, with and without 3 mM CaCl2; column calibrated with molecular mass markers; self-association, monomer to dimer

“Lig A9 (9th tandem Big repeat of LigA) (domain or fragment)” was tested, and the stoichiometry N [1] was 2.

In the case of “Lig A10 (10th tandem Big repeat of LigA) (domain or fragment)”, the stoichiometry N [2] was 2.

LigBCen2 (domain or fragment) gave a stoichiometry N [3] of 2.
